Experimental data published in US20060263802A1 (CRUCELL HOLLAND B V, published 2006).

What was measured:
Assay in all cases: PEPSCAN ELISA, looped peptide, antibody 10 µg/ml
[1] = molecular target: looped/cyclic peptide … (rabies virus strain ERA)
[2] = molecular target: looped/cyclic peptide … (rabies virus strain ERA); remark: listed apart in the source
[3] = molecular target: looped/cyclic peptide … (rabies virus strain ERA); remark: listed apart in the source
[4] = molecular target: looped/cyclic peptide … (rabies virus strain ERA); remark: listed apart in the source
[5] = molecular target: looped/cyclic peptide … (rabies virus strain ERA); remark: listed apart in the source
[6] = molecular target: looped/cyclic peptide … (rabies virus strain ERA); remark: listed apart in the source
[7] = molecular target: looped/cyclic peptide … (rabies virus strain ERA); remark: listed apart in the source
[8] = molecular target: looped/cyclic peptide … (rabies virus strain ERA); remark: listed apart in the source
[9] = molecular target: looped/cyclic peptide … (rabies virus strain ERA); remark: listed apart in the source
[10] = molecular target: looped/cyclic peptide … (rabies virus strain ERA); remark: listed apart in the source
[11] = molecular target: looped/cyclic peptide … (rabies virus strain ERA); remark: listed apart in the source
[12] = molecular target: looped/cyclic peptide … (rabies virus strain ERA); remark: listed apart in the source
[13] = molecular target: looped/cyclic peptide … (rabies virus strain ERA); remark: listed apart in the source
[14] = molecular target: looped/cyclic peptide … (rabies virus strain ERA); remark: listed apart in the source
[15] = molecular target: looped/cyclic peptide … (rabies virus strain ERA); remark: listed apart in the source
[16] = molecular target: looped/cyclic peptide … (rabies virus strain ERA); remark: listed apart in the source
[17] = molecular target: looped/cyclic peptide … (rabies virus strain ERA); remark: listed apart in the source
[18] = molecular target: looped/cyclic peptide … (rabies virus strain ERA); remark: listed apart in the source
[19] = molecular target: looped/cyclic peptide … (rabies virus strain ERA); remark: listed apart in the source
[20] = molecular target: looped/cyclic peptide … (rabies virus strain ERA); remark: listed apart in the source
[21] = molecular target: looped/cyclic peptide … (rabies virus strain ERA); remark: listed apart in the source
[22] = molecular target: looped/cyclic peptide … (rabies virus strain ERA); remark: listed apart in the source
[23] = molecular target: looped/cyclic peptide … (rabies virus strain ERA); remark: listed apart in the source
[24] = molecular target: looped/cyclic peptide … (rabies virus strain ERA); remark: listed apart in the source
[25] = molecular target: looped/cyclic peptide … (rabies virus strain ERA); remark: listed apart in the source
[26] = molecular target: looped/cyclic peptide … (rabies virus strain ERA); remark: listed apart in the source
[27] = molecular target: looped/cyclic peptide … (rabies virus strain ERA); remark: listed apart in the source
[28] = molecular target: looped/cyclic peptide … (rabies virus strain ERA); remark: listed apart in the source
[29] = molecular target: looped/cyclic peptide … (rabies virus strain ERA); remark: listed apart in the source
[30] = molecular target: looped/cyclic peptide … (rabies virus strain ERA); remark: listed apart in the source
[31] = molecular target: looped/cyclic peptide … (rabies virus strain ERA); remark: listed apart in the source
[32] = molecular target: looped/cyclic peptide … (rabies virus strain ERA); remark: listed apart in the source
[33] = molecular target: looped/cyclic peptide … (rabies virus strain ERA); remark: listed apart in the source
[34] = molecular target: looped/cyclic peptide … (rabies virus strain ERA); remark: listed apart in the source
[35] = molecular target: looped/cyclic peptide … (rabies virus strain ERA); remark: listed apart in the source
[36] = molecular target: looped/cyclic peptide … (rabies virus strain ERA); remark: listed apart in the source
[37] = molecular target: looped/cyclic peptide … (rabies virus strain ERA); remark: listed apart in the source
[38] = molecular target: looped/cyclic peptide … (rabies virus strain ERA); remark: listed apart in the source
[39] = molecular target: looped/cyclic peptide DIHHLSCPNNLVVED (rabies virus strain ERA)
[40] = molecular target: looped/cyclic peptide … (rabies virus strain ERA); remark: listed apart in the source
[41] = molecular target: looped/cyclic peptide … (rabies virus strain ERA); remark: listed apart in the source
[42] = molecular target: looped/cyclic peptide … (rabies virus strain ERA); remark: listed apart in the source
[43] = molecular target: looped/cyclic peptide … (rabies virus strain ERA); remark: listed apart in the source
[44] = molecular target: looped/cyclic peptide … (rabies virus strain ERA); remark: listed apart in the source
[45] = molecular target: looped/cyclic peptide … (rabies virus strain ERA); remark: listed apart in the source
[46] = molecular target: looped/cyclic peptide … (rabies virus strain ERA); remark: listed apart in the source
[47] = molecular target: looped/cyclic peptide … (rabies virus strain ERA); remark: listed apart in the source
[48] = molecular target: looped/cyclic peptide … (rabies virus strain ERA); remark: listed apart in the source
[49] = molecular target: looped/cyclic peptide … (rabies virus strain ERA); remark: listed apart in the source
[50] = molecular target: looped/cyclic peptide … (rabies virus strain ERA); remark: listed apart in the source
[51] = molecular target: looped/cyclic peptide […] (rabies virus strain ERA)
[52] = molecular target: looped/cyclic peptide … (rabies virus strain ERA); remark: listed apart in the source
[53] = molecular target: looped/cyclic peptide … (rabies virus strain ERA); remark: listed apart in the source
[54] = molecular target: looped/cyclic peptide … (rabies virus strain ERA); remark: listed apart in the source
[55] = molecular target: looped/cyclic peptide … (rabies virus strain ERA); remark: listed apart in the source
[56] = molecular target: looped/cyclic peptide … (rabies virus strain ERA); remark: listed apart in the source
[57] = molecular target: looped/cyclic peptide … (rabies virus strain ERA); remark: listed apart in the source
[58] = molecular target: looped/cyclic peptide … (rabies virus strain ERA); remark: listed apart in the source
[59] = molecular target: looped/cyclic peptide … (rabies virus strain ERA); remark: listed apart in the source
[60] = molecular target: looped/cyclic peptide … (rabies virus strain ERA); remark: listed apart in the source
[61] = molecular target: looped/cyclic peptide … (rabies virus strain ERA); remark: listed apart in the source
[62] = molecular target: looped/cyclic peptide … (rabies virus strain ERA); remark: listed apart in the source
[63] = molecular target: looped/cyclic peptide … (rabies virus strain ERA); remark: listed apart in the source
[64] = molecular target: looped/cyclic peptide … (rabies virus strain ERA); remark: listed apart in the source
[65] = molecular target: looped/cyclic peptide … (rabies virus strain ERA); remark: listed apart in the source
[66] = molecular target: looped/cyclic peptide … (rabies virus strain ERA); remark: listed apart in the source
[67] = molecular target: looped/cyclic peptide … (rabies virus strain ERA); remark: listed apart in the source
[68] = molecular target: looped/cyclic peptide … (rabies virus strain ERA); remark: listed apart in the source
[69] = molecular target: looped/cyclic peptide … (rabies virus strain ERA); remark: listed apart in the source
[70] = molecular target: looped/cyclic peptide … (rabies virus strain ERA); remark: listed apart in the source
[71] = molecular target: looped/cyclic peptide … (rabies virus strain ERA); remark: listed apart in the source
[72] = molecular target: looped/cyclic peptide … (rabies virus strain ERA); remark: listed apart in the source
[73] = molecular target: looped/cyclic peptide … (rabies virus strain ERA); remark: listed apart in the source
[74] = molecular target: looped/cyclic peptide … (rabies virus strain ERA); remark: listed apart in the source
[75] = molecular target: looped/cyclic peptide … (rabies virus strain ERA); remark: listed apart in the source

B1: human monoclonal antibody CRJB (antibody, V domains shown)
VH: QITLKETGPTLVKPTQTLTLTCTFSGFSLSTSGVGVGWIRQPPGKALEWVTLIYWDDDKRYSPSLENRVTIRKDTSKNQVALTMTNMDPLDTGTYYCAHRQHISSFPWFDSWGQGTLVTVSS
VL: SYVLTQPPSVSVAPGKTARINCGGNNIEYRSVHWYQQKSGQAPVAVIYDNSDRPSGIPERFSGSKSGNTATLTISRVEAGDEADYYCQVWDISSDVVFGGGTKLTVLG
OD value [1]: 54 OD
OD value [2]: 73 OD
OD value [3]: 77 OD
OD value [4]: 63 OD
OD value [5]: 69 OD
OD value [6]: 80 OD
OD value [7]: 111 OD
OD value [8]: 85 OD
OD value [9]: 83 OD
OD value [10]: 93 OD
OD value [11]: 79 OD
OD value [12]: 68 OD
OD value [13]: 60 OD
OD value [14]: 93 OD
OD value [15]: 69 OD
OD value [16]: 93 OD
OD value [17]: 68 OD
OD value [18]: 49 OD
OD value [19]: 74 OD
OD value [20]: 58 OD
OD value [21]: 92 OD
OD value [22]: 85 OD
OD value [23]: 90 OD
OD value [24]: 58 OD
OD value [25]: 83 OD
OD value [26]: 70 OD
OD value [27]: 65 OD
OD value [28]: 64 OD
OD value [29]: 70 OD
OD value [30]: 85 OD
OD value [31]: 80 OD
OD value [32]: 86 OD
OD value [33]: 99 OD
OD value [34]: 90 OD
OD value [35]: 75 OD
OD value [36]: 77 OD
OD value [37]: 71 OD
OD value [38]: 72 OD
OD value [39]: 48 OD
OD value [40]: 60 OD
OD value [41]: 72 OD
OD value [42]: 68 OD
OD value [43]: 63 OD
OD value [44]: 50 OD
OD value [45]: 85 OD
OD value [46]: 92 OD
OD value [47]: 72 OD
OD value [48]: 77 OD
OD value [49]: 64 OD
OD value [50]: 71 OD
OD value [51]: 138 OD
OD value [52]: 82 OD
OD value [53]: 92 OD
OD value [54]: 104 OD
OD value [55]: 89 OD
OD value [56]: 99 OD
OD value [57]: 78 OD
OD value [58]: 75 OD
OD value [59]: 83 OD
OD value [60]: 79 OD
OD value [61]: 83 OD
OD value [62]: 88 OD
OD value [63]: 92 OD
OD value [64]: 64 OD
OD value [65]: 61 OD
OD value [66]: 74 OD
OD value [67]: 78 OD
OD value [68]: 33 OD
OD value [69]: 107 OD
OD value [70]: 80 OD
OD value [71]: 91 OD
OD value [72]: 90 OD
OD value [73]: 92 OD
OD value [74]: 100 OD
OD value [75]: 77 OD
